Laboratory results published in patent publication US20130225493A1.

How the values were obtained:
[1] = target: FGFR3-IIIc stably expressed on FDCP cells (UniProt P22607); experiment: cell-based or functional assay
[2] = target: FGFR3 extracellular domain, immobilized (R3-Fc) (UniProt P22607); experiment: functional ELISA on immobilized FGFR
[3] = target: FGFR2 extracellular domain, immobilized (R2-Fc) (UniProt P21802); experiment: functional ELISA on immobilized FGFR
[4] = target: FGFR1 extracellular domain, immobilized (R1-Fc) (UniProt P11362); experiment: functional ELISA on immobilized FGFR
[5] = target: FGFR3 extracellular domain, immobilized (R3-Fc) (UniProt P22607); experiment: ELISA: biotinylated ligand on immobilized FGFR-Fc, HRP-streptavidin
[6] = target: FGFR2 extracellular domain, immobilized (R2-Fc) (UniProt P21802); experiment: as above
[7] = target: FGFR1 extracellular domain, immobilized (R1-Fc) (UniProt P11362); experiment: as above

Chain of FGF-18 (recombinant wild type, mature form without the signal peptide) (O76093 other isoform, or with tags, fused parts or gaps): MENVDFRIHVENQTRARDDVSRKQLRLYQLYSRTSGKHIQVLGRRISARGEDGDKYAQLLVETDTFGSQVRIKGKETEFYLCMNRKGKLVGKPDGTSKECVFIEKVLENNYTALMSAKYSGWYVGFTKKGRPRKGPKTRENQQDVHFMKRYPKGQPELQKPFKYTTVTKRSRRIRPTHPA
Chain of FGF-18^Δ31 (O76093 other isoform, or with tags, fused parts or gaps mutant limits assumed): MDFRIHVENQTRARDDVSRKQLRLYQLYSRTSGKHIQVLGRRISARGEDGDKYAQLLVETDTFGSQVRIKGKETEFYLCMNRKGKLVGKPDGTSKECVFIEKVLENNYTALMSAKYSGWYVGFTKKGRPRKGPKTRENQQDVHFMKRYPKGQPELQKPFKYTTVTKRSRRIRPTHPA
Chain of FGF-18^Δ51 (O76093 other isoform, or with tags, fused parts or gaps mutant limits assumed): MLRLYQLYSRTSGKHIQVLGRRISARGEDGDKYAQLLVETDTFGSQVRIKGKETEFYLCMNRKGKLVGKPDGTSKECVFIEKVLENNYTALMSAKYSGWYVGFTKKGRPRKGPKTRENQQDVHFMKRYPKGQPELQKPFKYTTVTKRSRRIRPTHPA
Chain of FGF-18^Δ37 (O76093 other isoform, or with tags, fused parts or gaps mutant limits assumed): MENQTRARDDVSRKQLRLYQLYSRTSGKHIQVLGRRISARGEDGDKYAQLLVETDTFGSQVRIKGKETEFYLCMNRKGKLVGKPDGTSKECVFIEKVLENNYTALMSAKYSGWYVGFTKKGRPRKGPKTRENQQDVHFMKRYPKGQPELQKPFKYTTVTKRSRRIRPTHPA
Chain of FGF-18^Δ33 (O76093 other isoform, or with tags, fused parts or gaps mutant limits assumed): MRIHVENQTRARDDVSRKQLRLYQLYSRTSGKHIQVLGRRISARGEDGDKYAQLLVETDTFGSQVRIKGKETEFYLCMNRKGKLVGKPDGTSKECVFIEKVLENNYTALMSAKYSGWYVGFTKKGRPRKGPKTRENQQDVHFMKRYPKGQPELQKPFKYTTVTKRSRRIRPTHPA
Chain of FGFR3-IIIc stably expressed on FDCP cells (P22607 23-806): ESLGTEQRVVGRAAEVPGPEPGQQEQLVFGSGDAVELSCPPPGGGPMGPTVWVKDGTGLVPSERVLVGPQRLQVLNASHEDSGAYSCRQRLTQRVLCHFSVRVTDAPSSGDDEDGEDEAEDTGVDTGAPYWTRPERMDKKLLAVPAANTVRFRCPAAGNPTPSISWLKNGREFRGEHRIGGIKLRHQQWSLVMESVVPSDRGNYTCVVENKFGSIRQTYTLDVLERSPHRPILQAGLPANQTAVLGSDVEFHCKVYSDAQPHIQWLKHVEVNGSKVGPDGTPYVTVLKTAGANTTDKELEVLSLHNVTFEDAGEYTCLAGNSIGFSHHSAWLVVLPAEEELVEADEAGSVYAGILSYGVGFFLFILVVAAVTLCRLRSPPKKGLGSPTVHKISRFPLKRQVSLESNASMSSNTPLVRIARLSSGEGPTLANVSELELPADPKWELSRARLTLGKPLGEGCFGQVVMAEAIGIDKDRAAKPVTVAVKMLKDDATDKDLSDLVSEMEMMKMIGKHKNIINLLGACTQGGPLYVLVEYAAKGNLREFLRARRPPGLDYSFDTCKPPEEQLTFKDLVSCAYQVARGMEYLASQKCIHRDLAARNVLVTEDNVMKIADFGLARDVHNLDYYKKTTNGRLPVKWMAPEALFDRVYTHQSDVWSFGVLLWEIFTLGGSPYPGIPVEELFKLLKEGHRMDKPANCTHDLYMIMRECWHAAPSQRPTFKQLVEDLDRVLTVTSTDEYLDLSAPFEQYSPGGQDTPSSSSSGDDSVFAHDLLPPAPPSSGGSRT
Chain of FGF-18^Δ45 (O76093 other isoform, or with tags, fused parts or gaps mutant limits assumed): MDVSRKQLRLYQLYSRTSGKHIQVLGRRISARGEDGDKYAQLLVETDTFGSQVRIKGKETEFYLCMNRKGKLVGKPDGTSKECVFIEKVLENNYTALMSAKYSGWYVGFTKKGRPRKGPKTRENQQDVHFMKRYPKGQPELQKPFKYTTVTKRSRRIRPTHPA

Row | Substance | EC50 scores of FGF ligands in cell proliferation of FDCPR3 [1] | EC50 [2] | EC50 [3] | EC50 [4] | EC50 [5] | EC50 [6] | EC50 [7]
1 | FGF-18^Δ31 (from UniProt O76093 32-207) (ligand) | – | 8.55 ng/mL | 11.2 ng/mL | 24.4 ng/mL | – | – | –
2 | FGF-18^Δ37 (from UniProt O76093 38-207) (ligand) | – | 9.75 ng/mL | – | – | 5.94 ng/mL | – | –
3 | FGF-18^Δ45 (from UniProt O76093 46-207) (ligand) | – | – | – | – | 9.16 ng/mL | – | –

The remaining lines, values ahead:

Row | EC50 scores of FGF ligands in cell proliferation of FDCPR3 [1] | EC50 [2] | EC50 [3] | EC50 [4] | EC50 [5] | EC50 [6] | EC50 [7] | Substance
4 | 1.19 ng/mL | – | – | – | – | – | – | FGF-2 wild type (from UniProt P09038 134-288) (ligand)
5 | – | 6.59 ng/mL | 8.76 ng/mL | 22.8 ng/mL | 5.04 ng/mL | 9.51 ng/mL | 28.2 ng/mL | FGF-18 (recombinant wild type, mature form without the signal peptide) (from UniProt O76093 29-207) (ligand)
6 | – | 8.27 ng/mL | – | – | – | – | – | FGF-18^Δ33 (from UniProt O76093 34-207) (ligand)
7 | – | 9.99 ng/mL | 43.5 ng/mL | 41.9 ng/mL | 10.2 ng/mL | – | – | FGF-18^Δ51 (from UniProt O76093 52-207) (ligand)
